Source: publication PMC7890179, “Adiponectin forms a complex with atherogenic LDL and inhibits its downstream effects” (Journal of Lipid Research, 2020)

Assays:
[1] = target: copper-oxidized low density lipoprotein (human (endogenous in human plasma)); assay: ELISA; native LDL or oxLDL (1 μg/ml) captured on anti-apoB monoclonal antibody HUC20 on a 384-well plate; recombinant adiponectin added for 1 h at 25°C, washed with PBS, detected with anti-adiponectin polyclonal antibody; apparent Kd, 1:1 reversible binding assumed
[2] = target: copper-oxidized low density lipoprotein (human (endogenous in human plasma), oxidized with 7.5 μM CuSO4 for 16 h (residues not stated)); assay: as above; conditions: both partners purified

| Kd [1] | Kd [2] | Molecule |
| --- | --- | --- |
| 45.3 nM |  | globular form of adiponectin protein with an N-terminal His-tag sequence (domain or fragment; other documents disagree on this pair) |
|  | 15.7 nM | Human recombinant full-length adiponectin protein (composed of the LMW, MMW, and HMW isoforms) with a C-terminal FLAG sequence (natural protein, UniProt Q15848 19-244, looked up, adiponectin, human, full-length recombinant protein; A mixture of trimers (LMW), hexamers (MMW) and HMW multimers; Secreted from HEK293 cells, so the signal peptide is probably absent (surmised); also called AdN; human recombinant full-length AdN; source: bought: BioVendor cat. no; RD172023100, produced in HEK293 cells) ETTTQGPGVLLPLPKGACTGWMAGIPGHPGHNGAPGRDGRDGTPGEKGEKGDPGLIGPKGDIGETGVPGAEGPRGFPGIQGRKGEPGEGAYVYRSAFSVGLETYVTIPNMPIRFTKIFYNQQNHYDGSTGKFHCNIPGLYYFAYHITVYMKDVKVSLFKKDKAMLFTYDQYQENNVDQASGSVLLHLEVGDQVWLQVYGEGERNGLYADNDNDSTFTGFLLYHDTN |
